Publication PMC12234955 (Nature Communications, 2025)

What was measured:
[1] = molecular target: T1, Norrin-Fc (human Norrin K25-S133, HRV 3C site, human IgG1 Fc, C-terminal FLAG) (human), Q00604; test: cryo-EM structure; conditions: remark: other sources report otherwise
T1 chain: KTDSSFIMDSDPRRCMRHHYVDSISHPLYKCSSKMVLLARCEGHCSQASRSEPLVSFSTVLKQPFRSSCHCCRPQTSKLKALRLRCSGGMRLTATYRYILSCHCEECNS

[2] = molecular target: LGR4-ECD (LGR4 ectodomain) (human, UniProt Q9BXB1); test: BLI
[3] = molecular target: Human LGR4 (residues A25-Q833), C-terminal Flag tag (human, UniProt Q9BXB1 25-833); test: cryo-EM structure

B1: Norrin-Fc (human Norrin K25-S133, HRV 3C site, human IgG1 Fc, C-terminal FLAG), Q00604 25-133 (Fc fusion)
chain: KTDSSFIMDSDPRRCMRHHYVDSISHPLYKCSSKMVLLARCEGHCSQASRSEPLVSFSTVLKQPFRSSCHCCRPQTSKLKALRLRCSGGMRLTATYRYILSCHCEECNS
Work on B1 yielded a stoichiometry N [1] of 2.

B2: NB18 (VHH)
VHH: QVQLQESGGGSVQAGGSLRLSCAASGYTYSRTCMAWFRQAPGKEREGIATINSDGTTTYADSVKGRFTISRDNAKNTLSLQMNSLKPEDTAMYYCAAASLSTRGCSRAEWEYRYWGQGTQVTVSS
Binder B2 has a Kd [2] of 150 pM.

B3: Norrin-Fc (human Norrin K25-S133, HRV 3C site, human IgG1 Fc, C-terminal FLAG) (Fc fusion)
chain: KTDSSFIMDSDPRRCMRHHYVDSISHPLYKCSSKMVLLARCEGHCSQASRSEPLVSFSTVLKQPFRSSCHCCRPQTSKLKALRLRCSGGMRLTATYRYILSCHCEECNS
B3 was tested, and the “stoichiometry N” value [3] was 1 Norrin chains per LGR4 (2:2).
